The values that follow come from patent publication US8632989B1, “Mutant insulin degrading enzyme and methods of use” (University of Kentucky Research Foundation, priority 2011, dated 2014).

Data set [1] has as its target T1, IDE (Rattus norvegicus, UniProt P35559).
T1 construct: hexahistidine (N); made in house; host or cells: Sf9 insect cells (baculovirus, pFastBac HTb)
T1 sequence (P35559 41-1019): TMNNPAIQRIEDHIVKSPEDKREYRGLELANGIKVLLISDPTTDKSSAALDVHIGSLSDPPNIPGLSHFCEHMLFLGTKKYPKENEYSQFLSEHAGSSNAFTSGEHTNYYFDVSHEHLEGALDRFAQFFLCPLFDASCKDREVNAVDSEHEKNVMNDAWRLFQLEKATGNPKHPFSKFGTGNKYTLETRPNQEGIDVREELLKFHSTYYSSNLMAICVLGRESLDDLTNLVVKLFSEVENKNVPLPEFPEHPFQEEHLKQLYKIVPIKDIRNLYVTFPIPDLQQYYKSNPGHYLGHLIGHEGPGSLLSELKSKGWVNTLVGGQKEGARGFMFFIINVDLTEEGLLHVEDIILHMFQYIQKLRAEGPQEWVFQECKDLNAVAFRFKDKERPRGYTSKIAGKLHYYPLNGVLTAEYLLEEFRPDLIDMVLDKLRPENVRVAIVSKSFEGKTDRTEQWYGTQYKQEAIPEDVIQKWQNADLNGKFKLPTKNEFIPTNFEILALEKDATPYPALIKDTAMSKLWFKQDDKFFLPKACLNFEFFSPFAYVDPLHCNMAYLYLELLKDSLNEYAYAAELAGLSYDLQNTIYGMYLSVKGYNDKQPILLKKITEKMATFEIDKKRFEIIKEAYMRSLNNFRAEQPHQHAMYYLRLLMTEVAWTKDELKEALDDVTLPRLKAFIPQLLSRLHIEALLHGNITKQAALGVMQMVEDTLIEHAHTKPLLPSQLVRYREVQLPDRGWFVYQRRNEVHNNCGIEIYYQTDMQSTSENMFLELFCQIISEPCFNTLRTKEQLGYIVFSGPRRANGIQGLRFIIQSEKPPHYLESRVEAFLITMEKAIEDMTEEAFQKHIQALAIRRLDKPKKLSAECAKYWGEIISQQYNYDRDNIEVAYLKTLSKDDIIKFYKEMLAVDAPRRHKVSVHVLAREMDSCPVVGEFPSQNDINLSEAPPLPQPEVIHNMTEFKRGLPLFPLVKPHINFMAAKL
Put plainly: γ-methylene-ATP versus ATP activation of IDE-dependent hydrolysis of Abz-[…]-EDDnp. As to conditions: 10 μM substrate, compared with ATP. The class given is biochemical. As for the experimental part: Activity was determined in 50 mM Tris-HCl, pH 7.4 with 10 μM Abz-[…]-EDDnp (SEQ ID NO:3) as substrate and indicated concentrations of ATP or γ-methylene-ATP. Reactions contained 0.1 μg of protein.
(§1) IDE activity was determined by measuring the increase in fluorescence that occurs when the enzyme cleaves the internally quenched fluorogenic substrate Abz-[…]-EDDnp (SEQ ID NO:3) at the R—K bond (Song et al., Journal of Biologial Chemistry 276, 1152-1155 (2001)). The reaction was followed on a SpectraMax Gemini XS fluorescence plate reader using an excitation and emission wavelengths of 318 nm and 419 nm, respectively. Initial velocities were determined using SoftMax Pro 4.0 and kinetic constants calculated using GraphPad Prism 4.0. ATPase activity was measured by following Pi release with acid-molybdate as described by Harder et al. (Harder et al., Biochemical Journal 298 (Pt 2), 395-401 (1994)).

The subject of data set [2] is Abz-GGFLRKHGQ-EDDnp. Put plainly: Activation by ATP of Abz-[…]-EDDnp hydrolysis, IDE and ATP binding site mutants. The class given is biochemical. The conditions noted are these: 10 μM Abz-GGFLRKHGQ-EDDnp as substrate. On the procedure:
Activity was determined in 50 mM Tris-HCl, pH 7.4 with 10 μM Abz-[…]-EDDnp (SEQ ID NO:3) as substrate at the indicated concentrations of ATP (panel A), PPPi (panel B) or, TNP-ATP (panel C). Each reaction contained 0.5 μg of enzyme.
as §1

The test system of data set [3] is Abz-GGFLRKHGQ-EDDnp. Put plainly: Effect of bradykinin on Abz-[…]-EDDnp hydrolysis, IDE and ATP binding site mutants. The format is biochemical. The conditions noted are these: 10 μM substrate, bradykinin as activator. As for the experimental part: Activity was determined in 50 mM Tris-HCl, pH 7.4 with 10 μM Abz-[…]-EDDnp (SEQ ID NO:3) as substrate and indicated concentrations of bradykinin. Reactions contained 0.5 μg of protein.
as §1

For data set [4], the system named is Abz-GGFLRKHGQ-EDDnp. Put plainly: Enzyme activity assay, kinetics of IDE and ATP binding site mutants with fluorogenic substrate. As to conditions: rat IDE, Abz-GGFLRKHGQ-EDDnp as substrate. The class given is biochemical. As for the experimental part:
Reactions were conducted in 50 mM Tris-HCl, pH 7.4.
as §1

Data set [5] is described as follows: TNP-ATP fluorescence measurements, IDE and ATP binding site mutants. The conditions noted are these: 1.5 μM enzyme, 10 μM TNP-ATP, λexc=403 nm. On the procedure: Fluorescence emission spectra were recorded on a Perkin-Elmer LS 55 Luminescence spectrometer with 1.5 μM of IDE, IDE^R429S or IDE^K898A,K899A,S901A in 50 mM Tris-HCl, pH 7.4 with 10 μM TNP-ATP. Fluorescence spectra were recorded with a λexc=403 nm.
TNP-ATP [2′,3′-O-(2,4,6-Trinitrophenyl)adenosine-5′-triphosphate] fluorescence was monitored at excitation and emission wavelengths of 403 nm and 547 nm, respectively, using a Perkin-Elmer LS55 Luminescence Spectrometer at 20±0.1° C. TNP-ATP (Molecular Probes, Inc.) as supplied was diluted to 4 mM with 50 mM Tris-HCl, pH 7.4, and added to achieve the indicated concentrations.

Data set [6] deals with Saccharomyces cerevisiae. Put plainly: IDE activity assay in yeast, serial dilution mating test. As to conditions: yeast assays. The format is cell-based. As for the experimental part: Panel A depicts immunoblot of yeast-expressed IDE and IDE^K898A,K899A,S901A. Equivalent percentage amounts of total cellular extracts from yeast containing an empty expression vector or plasmids encoding IDE or the IDE^K898A,K899A,S901A mutant were analyzed by SDS-PAGE and immunoblotting using an IDE-specific antibody. […] An excess of MATa yeast were mixed with decreasing numbers of MATa cells deficient for Axl1p and Step 23p that were transformed with either an empty expression vector or a vector encoding IDE or IDE^K898A,K899A,S901A as indicated. Mating, which leads to colony growth, is dependent on production of mature a-factor pheromone by plasmid-encoded IDE. […] Concentrated samples of a-factor recovered from yeast bearing the indicated expression vector were spotted at the indicated dilutions on a lawn of RC757 MATa cells, which undergo growth arrest upon exposure to a-factor pheromone. […]
The assays take advantage of the ability of IDE, in lieu of the yeast M16 metallopeptidases Axl1p and Step 23p, to participate in the proteolytic maturation of yeast a-factor mating pheromone. […] Growth of diploid colonies, indicative of mating, was scored 3 days after incubation of plates at 30° C. […] Results of mating tests and halo assays were recorded by scanning plates with a Microtek flatbed scanner and importing digitized images into Photoshop and PowerPoint.

In the case of `Nc1ncnc2c1ncn2[C@@H]1O[C@H](COP(=O)(O)OP(=O)(O)CP(=O)(O)O)[C@@H](O)[C@H]1O` [γ-methylene ATP], in data set [1], the “ability to activate Abz-GGFLRKHGQ-EDDnp hydrolysis by IDE” value was “nearly as well as ATP”.

B1: IDE^K898A,K899A,S901A: Rat IDE residues 41-1019 bearing the mutations K898A, K899A, S901A; ATP binding site mutant (protein, listed as Rattus norvegicus)
chain: MRNGLVWLLHPALPSTLHSILGARPPPVKRLCGFPKQIYSTMNNPAIQRIEDHIVKSPEDKREYRGLELANGIKVLLISDPTTDKSSAALDVHIGSLSDPPNIPGLSHFCEHMLFLGTKKYPKENEYSQFLSEHAGSSNAFTSGEHTNYYFDVSHEHLEGALDRFAQFFLCPLFDASCKDREVNAVDSEHEKNVMNDAWRLFQLEKATGNPKHPFSKFGTGNKYTLETRPNQEGIDVREELLKFHSTYYSSNLMAICVLGRESLDDLTNLVVKLFSEVENKNVPLPEFPEHPFQEEHLKQLYKIVPIKDIRNLYVTFPIPDLQQYYKSNPGHYLGHLIGHEGPGSLLSELKSKGWVNTLVGGQKEGARGFMFFIINVDLTEEGLLHVEDIILHMFQYIQKLRAEGPQEWVFQECKDLNAVAFRFKDKERPRGYTSKIAGKLHYYPLNGVLTAEYLLEEFRPDLIDMVLDKLRPENVRVAIVSKSFEGKTDRTEQWYGTQYKQEAIPEDVIQKWQNADLNGKFKLPTKNEFIPTNFEILALEKDATPYPALIKDTAMSKLWFKQDDKFFLPKACLNFEFFSPFAYVDPLHCNMAYLYLELLKDSLNEYAYAAELAGLSYDLQNTIYGMYLSVKGYNDKQPILLKKITEKMATFEIDKKRFEIIKEAYMRSLNNFRAEQPHQHAMYYLRLLMTEVAWTKDELKEALDDVTLPRLKAFIPQLLSRLHIEALLHGNITKQAALGVMQMVEDTLIEHAHTKPLLPSQLVRYREVQLPDRGWFVYQRRNEVHNNCGIEIYYQTDMQSTSENMFLELFCQIISEPCFNTLRTKEQLGYIVFSGPRRANGIQGLRFIIQSEKPPHYLESRVEAFLITMEKAIEDMTEEAFQKHIQALAIRRLDKPAALAAECAKYWGEIISQQYNYDRDNIEVAYLKTLSKDDIIKFYKEMLAVDAPRRHKVSVHVLAREMDSCPVVGEFPSQNDINLSEAPPLPQPEVIHNMTEFKRGLPLFPLVKPHINFMAAKL
modifications: wild-type Insulin Degrading Enzyme (IDE) from rat
As to B1, in data set [2], the “level of activation by ATP, of the wild type value” was “even less activation”. The “rate of Abz-GGFLRKHGQ-EDDnp hydrolysis with bradykinin, relative to wild type IDE” value in data set [3] is on record as “significantly reduced”. Further, in data set [4], the “Hill coefficient” value came out at 1.7 ± 0.1, the Michaelis-Menten constant (Km) turned out to be 17.3 ± 1 mM and the catalytic constant (kcat) came to 0.258 ± 0.01 s⁻¹. Besides, in data set [4] (50 mM Tris-HCl, pH 7.4), the maximal velocity (Vmax) was 140.8 ± 5.5 nmol/min/mg. Also, the “fluorescence associated with TNP-ATP binding, relative to wild type IDE” value in data set [5] is reported as “lower fluorescent yield”. Further, the “intracellular function relative to unmodified IDE” value in data set [6] is “reduced intracellular function”.
